Target: human Fc fusion angiotensin-converting enzyme 2 (hACE2-Fc) (human) (UniProt Q9BYF1)
Assay: BLI

Sequence of human Fc fusion angiotensin-converting enzyme 2 (hACE2-Fc) (human) (Q9BYF1 18-740): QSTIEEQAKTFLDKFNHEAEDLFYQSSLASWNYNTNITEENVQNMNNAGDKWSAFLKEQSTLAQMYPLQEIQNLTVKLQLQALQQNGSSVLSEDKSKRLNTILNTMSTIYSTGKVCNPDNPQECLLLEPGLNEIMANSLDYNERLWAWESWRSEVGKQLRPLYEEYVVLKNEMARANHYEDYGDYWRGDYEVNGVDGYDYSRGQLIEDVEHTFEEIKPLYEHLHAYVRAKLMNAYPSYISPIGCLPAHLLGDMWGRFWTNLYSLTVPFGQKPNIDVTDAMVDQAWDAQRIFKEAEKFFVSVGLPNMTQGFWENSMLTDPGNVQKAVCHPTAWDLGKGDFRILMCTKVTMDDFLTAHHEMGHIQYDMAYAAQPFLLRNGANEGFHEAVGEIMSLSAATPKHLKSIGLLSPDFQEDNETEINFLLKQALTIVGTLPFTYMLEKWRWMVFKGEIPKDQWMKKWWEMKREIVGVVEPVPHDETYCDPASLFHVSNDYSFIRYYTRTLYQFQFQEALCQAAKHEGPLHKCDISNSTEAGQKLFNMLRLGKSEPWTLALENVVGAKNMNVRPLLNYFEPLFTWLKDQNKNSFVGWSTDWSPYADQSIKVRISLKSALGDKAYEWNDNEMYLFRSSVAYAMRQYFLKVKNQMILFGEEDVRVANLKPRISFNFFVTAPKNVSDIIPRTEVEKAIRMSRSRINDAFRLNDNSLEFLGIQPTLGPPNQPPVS

Substance	Kd [nM]	koff [s⁻¹]	kon [M⁻¹ s⁻¹]
MBP-fused spike receptor binding domain of SARS-CoV-2 Omicron BA.1 (MBP-RBDomi) (domain or fragment)	10.1	0.00174	172000
spike RBD of SARS-CoV-2 Omicron expressed in a mammalian system (domain or fragment)	7.16	0.00161	226000
